# Data reported in patent US20080113343A1.
# Target: human sPLA2-IIA (Type IIA secreted phospholipase A2) (human) (UniProt P14555)
# Experiment: cell-based or functional assay
# Sequence of human sPLA2-IIA (Type IIA secreted phospholipase A2) (human) (P14555 21-144 limits assumed): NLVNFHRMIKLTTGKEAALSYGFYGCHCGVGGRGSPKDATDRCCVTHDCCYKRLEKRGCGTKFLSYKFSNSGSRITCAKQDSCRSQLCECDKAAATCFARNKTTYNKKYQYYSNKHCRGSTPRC
substance,measurement,value
c(2NapA)LS(2NapA)R (cyclic (2Nap)LS(2Nap)R) (peptide),"smallest effective dose, proliferation of unstimulated LNCaP and PC-3 cells (MTS assay, doses 1-100 nM)",1 nM
